{
  "source": "patent US20140256614",
  "proteins": {"B1": {"name": "MK2 (endogenous, in mouse embryonic fibroblasts, MEF) (protein)", "chain": "MLSGSPGQTPPAPFPSPPPPAPAQPPPPFPQFHVKSGLQIRKNAITDDYKVTSQVLGLGINGKVLRIFDKRTQQKFALKMLQDCPKARREVELHWRASQCPHIVHIVDVYENLYAGRKCLLIVMECLDGGELFSRIQDRGDQAFTEREASEIMKSIGEAIQYLHSINIAHRDVKPENLLYTSKRPNAILKLTDFGFAKETTSHNSLTTPCYTPYYVAPEVLGPEKYDKSCDMWSLGVIMYILLCGYPPFYSNHGLAISPGMKTRIRMGQYEFPNPEWSEVSEEVKMLIRNLLKTEPTQRMTITEFMNHPWIMQSTKVPQTPLHTSRVLKEDKERWEDVKEEMTSALATMRVDYEQIKIKKIEDASNPLLLKRRKKARAVEDAALAH"}},
  "target": "T1, MK2-activating peptide (transduction domain YARAAARQARA coupled to a Kaposin-derived region)",
  "T1 chain": "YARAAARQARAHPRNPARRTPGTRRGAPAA",
  "data": [
    {"protein": "B1", "values": [
      {"measurement": "phosphorylated HSP27 by immunoblot, time course at 50 µM peptide, MEF", "result": "significant MK2 activation was observed by 15 minutes of treatment"}
    ]}
  ]
}
